Results from paper PMC6171237, “UBN1/2 of HIRA complex is responsible for recognition and deposition of H3.3 at cis-regulatory elements of genes in mouse ES cells” (BMC Biology, 2018).

Target: T1, (H3.3-H4)2 tetramers (UniProt P84243 1-136; P62805 1-103)
T1 construct: Histone H3.3; Histone H4; also called H3.3-H4 tetramer; copies: 2 + 2
Test: pull-down; GST fusion proteins immobilized on Glutathione Sepharose 4 Fast Flow, histone tetramers added in 20 mM HEPES-HCl pH 7.9, 500 mM NaCl, 1 mM EDTA, 5 mM 2-mercaptoethanol, 0.1% Nonidet P-40, overnight at 4 °C; Coomassie staining
Settings: both partners purified

Binder	binding result
GST-UBN2 (109–291) (domain or fragment, UBN2, human, residues 109-291, contains the HRD domain; also called UBN2 (aa109-291); GST-UBN2-(aa109-291); source: E. coli, purified by GST tag) PRESASRAEQPPRPPRETVRLELVLKDPTDESCVEFSYPELLLCGEQRKKLIHTEDPFNDEHQERQEVEMLAKKFEMKYGGKPRKHRKDRLQDLIDIGFGYDETDPFIDNSEAYDELVPASLTTKYGGFYINTGTLQFRQASDTEEDDITDNQKHKPPKVPKIKEDDIEMKKRKRKEEGEKEK	binds
GST-UBN1 (1–213) (domain or fragment, source: E. coli, purified by GST tag) MSEPHRVQFTSLPGSLNPAFLKKSRKEEAGAGEQHQDCEPAAAAVRITLTLFEPDHKRCPEFFYPELVKNIRGKVKGLQPGDKKKDLSDPFNDEEKERHKVEALARKFEEKYGGKKRRKDRIQDLIDMGYGYDESDSFIDNSEAYDELVPASLTTKYGGFYINSGTLQFRQASESEDDFIKEKKKKSPKKRKLKEGGEKIKKKKKDDTYDKEK	binds
